Data from paper PMC6323126 (2019).

B1: SIKE1 (recombinant, limits not stated) [human] / SLMAP (recombinant, limits not stated for the experiment) [human] (parent complex)
chain 1: MSCTIEKILTDAKTLLERLREHDAAAESLVDQSAALHRRVAAMREAGTALPDQYQEDASDMKDMSKYKPHILLSQENTQIRDLQQENRELWISLEEHQDALELIMSKYRKQMLQLMVAKKAVDAEPVLKAHQSHSAEIESQIDRICEMGEVMRKAVQVDDDQFCKIQEKLAQLELENKELRELLSISSESLQARKENSMDTASQAIK
chain 2: YSQELFQLSQYLQEALHREQMLEQKLATLQRLLAITQEASDTSWQALIDEDRLLSRLEVMGNQLQACSKNQTEDSLRKELIALQEDKHNYETTAKESLRRVLQEKIEVVRKLSEVERSLSNTEDECTHLKEMNERTQEELRELANKYNGAVNEIKDLSDKLKVAEGKQEEIQQKGQAEKKELQHKIDEMEEKEQELQAKIEALQADNDFTNERLTALQVRLEHLQEKTLKECSSLEHLLSKSGGDCTFIHQFIECQKKLIVEGHLTKAVEETKLSKENQTRAKESDFSDTLSPSKEKSSDDTTDAQMDEQDLNEPLAKVSLLKDDLQGAQSEIEAKQEIQHLRKELIEAQELARTSKQKCFELQALLEEERKAYRNQVEESTKQIQVLQAQLQRLHIDTENLREEKDSEITSTRDELLSARDEILLLHQAAAKVASERDTDIASLQEELKKVRAELERWRKAASEYEKEITSLQNSFQLRCQQCEDQQREEATRLQGELEKLRKEWNALETECHSLKRENVLLSSELQRQEKELHNSQKQSLELTSDLSILQMSRKELENQVGSLKEQHLRDSADLKTLLSKAENQAKDVQKEYEKTQTVLSELKLKFEMTEQEKQSITDELKQCKNNLKLLREKGNNKP

Variants of: B1
Experiment: BLI; read at the end of association (about 360 s); parent: 0.13; read off a plot

Variant | response
chain 1 MSCTIEKILTDAKTLLERDREHDAAAESLVDQSAALHRRVAAMREAGTALPDQYQEDASDMKDMSKYKPHILLSQENTQIRDLQQENRELWISLEEHQDALELIMSKYRKQMLQLMVAKKAVDAEPVLKAHQSHSAEIESQIDRICEMGEVMRKAVQVDDDQFCKIQEKLAQLELENKELRELLSISSESLQARKENSMDTASQAIK [chain 1 L19D] | ~0.045 nm
chain 1 MSCTIEKILTDAKTDLERDREHDAAAESLVDQSAADHRRVAAEREAGTALPDQYQEDASDMKDMSKYKPHILLSQENTQIRDLQQENRELWISLEEHQDALELIMSKYRKQMLQLMVAKKAVDAEPVLKAHQSHSAEIESQIDRICEMGEVMRKAVQVDDDQFCKIQEKLAQLELENKELRELLSISSESLQARKENSMDTASQAIK [chain 1 L15D, chain 1 L19D, chain 1 L36D, chain 1 M43E] | ~0.02 nm
chain 1 MSCTIEKILTDAKTLLERLREHDAAAESLVDQSAALHRRVAAEREAGTALPDQYQEDASDMKDMSKYKPHILLSQENTQIRDLQQENRELWISLEEHQDALELIMSKYRKQMLQLMVAKKAVDAEPVLKAHQSHSAEIESQIDRICEMGEVMRKAVQVDDDQFCKIQEKLAQLELENKELRELLSISSESLQARKENSMDTASQAIK [chain 1 M43E] | ~0.05 nm
chain 1 MSCTIEKILTDAKTDLERLREHDAAAESLVDQSAALHRRVAAMREAGTALPDQYQEDASDMKDMSKYKPHILLSQENTQIRDLQQENRELWISLEEHQDALELIMSKYRKQMLQLMVAKKAVDAEPVLKAHQSHSAEIESQIDRICEMGEVMRKAVQVDDDQFCKIQEKLAQLELENKELRELLSISSESLQARKENSMDTASQAIK [chain 1 L15D] | ~0.045 nm
chain 1 MSCTIEKILTDAKTLLERLREHDAAAESLVDQSAADHRRVAAMREAGTALPDQYQEDASDMKDMSKYKPHILLSQENTQIRDLQQENRELWISLEEHQDALELIMSKYRKQMLQLMVAKKAVDAEPVLKAHQSHSAEIESQIDRICEMGEVMRKAVQVDDDQFCKIQEKLAQLELENKELRELLSISSESLQARKENSMDTASQAIK [chain 1 L36D] | ~0 nm
